Laboratory results from patent US20260226160A1 (ISAR BIOSCIENCE, published 2026).

T1: extracellular domain of human TREM2 (ecTREM2), Hölzel Diagnostika 11084-H08H (human, UniProt Q9NZC2 19-174)
T1 construct: extracellular domain; also called human ecTREM2; ecTREM2 domain
T1 sequence (looked up): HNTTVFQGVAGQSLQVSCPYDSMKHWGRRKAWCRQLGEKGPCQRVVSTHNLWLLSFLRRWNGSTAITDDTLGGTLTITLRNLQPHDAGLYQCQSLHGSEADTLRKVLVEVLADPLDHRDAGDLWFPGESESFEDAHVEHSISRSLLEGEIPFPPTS

T2: epitope peptide from the human TREM2 stalk region (DAGDLWFPG) (human)
T2 construct: also called human TREM2 peptide fragment
T2 peptide: DAGDLWFPG

T3: human TREM2 (hTREM2) on cells (human, UniProt Q9NZC2 19-230)
T3 sequence (looked up): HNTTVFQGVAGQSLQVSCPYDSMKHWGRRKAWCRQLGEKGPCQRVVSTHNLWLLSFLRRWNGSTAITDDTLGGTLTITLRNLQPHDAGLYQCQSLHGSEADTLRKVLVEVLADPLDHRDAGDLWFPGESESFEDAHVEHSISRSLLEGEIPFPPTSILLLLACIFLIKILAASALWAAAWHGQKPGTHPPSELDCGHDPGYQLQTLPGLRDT


How the values were obtained:
[1] = molecular target: T1, extracellular domain of human TREM2 …; test: ELISA, coated ecTREM2
Description: (§1) Anti-TREM2 antibody binding to the extracellular domain of TREM2 (ecTREM2) or to the human or mouse peptide fragment of the stalk region of TREM2 were quantified in an ELISA assay. All procedures were performed at room temperature and incubations were done on a microtiter plate shaker. ELISA plate was coated with 60 μl/well (final concentration 0.5 μg/ml) of the according ligand (ecTREM2 (Hölzel Diagnostika, 11084-H08H) or human or mouse TREM2 peptide fragment) in coating buffer (NaHCO₃) for 1 h. The coated plate was washed three times with PBS-T (PBS, 0.1% Tween-20), blocked with 100 μl/well of blocking solution (PBS-T, 3% milk powder) for 1 h, and washed again. Antibodies were pre-diluted 1:10 in PBS and set to a concentration of 1 μg/ml. A dilution series was performed with dilution steps of 1:3 and 1:10. 50 μl/well of diluted AB were transferred to the blocked ELISA plate and incubated for 1 h. The plate was washed three times with PBS-T and incubated with anti-human-Strep-POD (Jackson Immunoresearch, #109-035-098) diluted in PBS-T 1:10000 for 1 h. After washing three times, bound POD was detected by incubation with 100 μl/well of TMB substrate (Thermo Scientific, #34029) until a maximal optical density (OD) of about 1 to 2 was reached. Finally, the colorimetric reaction was stopped with 100 μl/well stopping solution (1M H₂SO₄) and the OD determined at a wavelength of 450 nm with a reference wavelength of 595 nm in a plate reader (SpectraMax i3xl).
(§2) We determined the binding affinity of all antibody clones including M07 as well as of the control antibody H01 and negative control (not shown here), to ecTREM2 by an ELISA-based binding assay (FIG. 2).

[2] = molecular target: T2, epitope peptide from the human TREM2 …; test: ELISA, coated epitope peptide SEQ ID NO: 16
Description: as §1

[3] = molecular target: T3, human TREM2 (hTREM2) on cells; test: cell-based or functional assay
[4] = molecular target: T2, epitope peptide from the human TREM2 …; test: ELISA, coated epitope peptide (0.5 µg/ml), antibody dilution series
Description: as §1, with “The plate was washed three times with PBS-T and incubated with anti-human-Strep-POD (Jackson Immunoresearch, #109-035-098) diluted in PBS-T 1:10000 for 1 h.” left out

[5] = molecular target: T1, extracellular domain of human TREM2 …; test: ELISA, coated ecTREM2 (0.5 µg/ml), antibody dilution series
Description: as §1, with “A dilution series was performed with dilution steps of 1:3 and 1:10. 50 μl/well of diluted AB were transferred to the blocked ELISA plate and incubated for 1 h. The plate was washed three times with PBS-T and incubated with anti-human-Strep-POD (Jackson Immunoresearch, #109-035-098) diluted in PBS-T 1:10000 for 1 h.” left out
as §2

[6] = molecular target: T3, human TREM2 (hTREM2) on cells; test: cell-based or functional assay; remark: listed apart in the source
[7] = molecular target: T3, human TREM2 (hTREM2) on cells; test: printed with the p-SYK titration curve of M07 on HEK293-Flp-In hTREM2/hDAP12 cells (FIG. 6B); how it was derived is not told
Description: Phosphorylated SYK (p-Syk) was measured using the AlphaLISA SureFire Ultra p-SYK Assay Kit (PerkinElmer, ALSU-PSYK-A-HV) following the manufacturer's instructions. Briefly, HEK293 cells overexpressing human TREM2 and human DAP12 were plated in 50 μl media at a density of 50,000 cells/well in a 96-well plate and incubated overnight at 37° C. in a cell culture incubator. The next day medium was removed and 50 μl of antibody diluted in medium was added to the cells. Following an incubation for 5 min at 37° C. treatment solutions were removed and cells were lysed with 50 μl lysis buffer supplemented with phosphatase inhibitor (VWR) for 10 min on a plate shaker (~350 rpm). 30 μl of lysate were then used for further incubation steps with acceptor and donor beads (each for 1 h) following analysis using a CLARIOstar^Plus Plate Reader (BMG Labtech).

Row | Binder | EC50 [1] | EC50 [2] | Mean values of fold increase over baseline (p-SYK AlphaLISA, 40 µg/ml antibody, HEK293-Flp-In hTREM2/hDAP12) [3] | binding result [4] | binding result [5] | EC50 of p-SYK signaling titration in HEK293-Flp-In hTREM2/hDAP12 [6] | SYK phosphorylation, fold increase [6] | Kd [7]
1 | antibody H08 (clone H08), fully human IgG1-LALA (antibody, V domains shown) VH: EVQLVQSGGGLVQPGGSLRLSCAASGFTFSSYAMSWVRQAPGKGLEWVSAISGSGGSTYYADSVKGRFTISRDNAKRSLYLQMNDLRVEDTAVYYCARTRTNVFDFWGQGTMVTVSS VL: not shown | 0.19 nM | 0.832 nM | 3.22 fold | – | – | – | – | –
2 | antibody M03 (clone M03), fully human IgG1-LALA (antibody, V domains shown) VH: EVQLVQSGGGLVQPGGSLRLSCAASGFTFSSYGITWVRQAPGKGLEWVSFISGGGSYTYYADSVKGRFTISRDNAKRTLYLQMNSLRAEDTAVYYCARSGRAYFDYWGQGTLVTVSS VL: DIRLTQPPSVSGAPGQRVTISCSGSSSNIGSLFVSWYQQLPGTAPKLLIYSNSQHPSGVPDRFSGSKSGTSASLAITGLQAEDEADYYCSAYDQFSNSVVFGGGTKLTVLG | 0.35 nM | 0.329 nM | 9.39 fold | – | – | – | – | –
3 | antibody M05 (clone M05), fully human IgG1-LALA (antibody, V domains shown) VH: EVQLLESGGGLVQPGGSLRLSCAASGFTFSSNAMTWVRQAPGKGLEWVSVIGSSGSYTYYADSVKGRFTISRDNSKNTLYLQMNSLRAEDTAVYYCARSGTTGFDYWGQGTLVTVSS VL: DIVMTQPPSVSVTPGQRVTISCRSSSSNIGSLFVSWYQQLPGTAPKLLIYSNSQHPSGVPDRFSGSKSGTSASLAITGLQAEDEADYYCSAYDQFSNSVVFGGGTKLTVLR | – | – | 1.07 fold | no binding | no binding | – | – | –
4 | antibody M07 (clone M07), fully human anti-hTREM2 IgG1-LALA-TFN (antibody, V domains shown, leaders are cleaved off; also called anti-hTREM2 antibody M07; MO7) VH: EVQLLESGGGLVQPGGSLRLTCAASGFTFSSYAMSWVRQAPGKGLEWVSVINGRGSNTYYADSVKGRFTITRDNSKNTLYLEMNSLRAEDTAVYYCARVRAYSGPSYGFDYWGQGTLVTVSS VL: DIQLTQSPLSLSASAGDRVTITCRASQSIRDYLGWYQQKPGKAPKLLIYAASKLQSGVPSRFSGSGSGTDFTLTISSLQPEDFATYYCQQSYHTPPFTFGQGTKVEIKR | 0.204 nM | 0.335 nM | 36.1 fold | – | – | 4.39 nM | ≤ 60 fold | 2.19 nM
